Molecular target: mouse PD-L1 (surface receptor on LLC-JSP and 4T1 murine cancer cells) (mouse) (UniProt Q9EP73)
Experiment: flow cytometry uptake of dye-siRNA tagged p-iPLK1-NP by 4T1 cells, 1 h exposure (FIG. 11B)

Sequence of mouse PD-L1 (surface receptor on LLC-JSP and 4T1 murine cancer cells) (mouse) (Q9EP73 19-290): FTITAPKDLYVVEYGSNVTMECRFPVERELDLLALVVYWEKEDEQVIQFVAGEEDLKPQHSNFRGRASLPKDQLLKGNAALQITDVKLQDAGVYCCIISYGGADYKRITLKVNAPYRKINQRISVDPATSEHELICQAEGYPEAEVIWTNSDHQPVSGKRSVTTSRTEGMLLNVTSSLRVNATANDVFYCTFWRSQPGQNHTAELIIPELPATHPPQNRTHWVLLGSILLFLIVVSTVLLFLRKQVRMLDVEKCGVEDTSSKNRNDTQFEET

cellular uptake, PD-L1 high cells vs. PD-L1 low cells (fold): 4 fold
Substance: p-iPLK1-NP (mesoporous silica nanoparticle coated with PEI and PEG, loaded with PLK1 inhibitor volasertib and conjugated with mouse PD-L1 antibody)
